Results on 84 variants are retold here after the RNAGym collection of RNA variant scans (doi:10.1093/molbev/msab373).

B1: Azoarcus group I ribozyme (parent)
chain: GUGCCUUGCGCCGGGAAACCACGCAAGGGAUGGUGUCAAAUUCGGCGAAACCUAAGCGCCCGCCCGGGCGUAUGGCAACGCCGAGCCAAGCUUCGGCGCCUGCGCCGAUGAAGGUGUAGAGACUAGACGGCACCCACCUAAGGCAAACGCUAUGGUGAAGGCAUAGUCCAGGGAGUGGCGAAAGUCACACAAACCGG

The data set covers variants of B1. Description: reverse-splicing fitness (ratio to wild type); higher = more active; in vitro selection; Mg2+ level not given. The essentials: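 An in vitro group I ribozyme library with randomized positions was T7-transcribed and gel-purified. In triplicate, 10 pmol RNA in EPPS pH 7.5 was reacted with 50 pmoles of a 30-nt RNA substrate for 1 h at 37 °C across several added MgCl2 levels (1–48 mM), then stopped with EDTA. Products were reverse transcribed from a substrate-complementary primer, PCR-amplified and sequenced (HiSeq 4000). Fitness is a variant's read proportion after selection over that before, normalised to wild type.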
Take C82A A120G A145G C150A C169G U176C: the reverse-splicing fitness is 0.0247.
Next, C82A A120G A145C C150U C169U: 0.00958; C82A A120G A145C C150U C169G: 0.00984; C82A A120G A145C C169U: 0.0141.
Next, C82A A120G A145C C169G: 0.0188.
Next, C82A A120G A145C C169A: 0.0124; C82A A120G A145G C150A C169A U176A: 0.0183.
For C82A A120G A145G C150A C169A U176G, the reverse-splicing fitness came to 0.00558.
In the case of C82A A120G A145G C150A C169A U176C, the reverse-splicing fitness worked out at 0.023.
Next, C82A A120G A145G C150A C169U U176G: 0.00592; C82A A120G A145G C150A C169U U176C: 0.0185.
Next, C82A A120G A145G C150A C169U U176A: 0.0211.
On to C82A A120G A145U C150G C169G U176C, for which the reverse-splicing fitness was found to be 0.00552.
As to C82A A120G A145U C150G C169G U176G, the reverse-splicing fitness stood at 0.00378.
Next, C82A A120G A145U C150G C169G U176A: 0.0066; C82A A120G A145U C150A U176G: 0.00503.
Next, C82A A120G A145U C150A U176A: 0.0108.
Next, C82A A120G A145U C150A U176C: 0.0131.
As to C82A A120G A145U C150U C169A U176G, the reverse-splicing fitness came out at 0.00418.
Next, C82A A120G A145U C150U C169A U176A: 0.013.
Next, C82A A120G A145U C150U C169A U176C: 0.0113; C82A A120G A145G C150U C169G U176C: 0.0199; C82A A120G A145G C150U C169G U176A: 0.0149.
On to C82A A120G A145G C150U C169G U176G, for which the reverse-splicing fitness was 0.0046.
Next, C82A A120G A145C C169A U176C: 0.00741; C82A A120G A145C C169A U176A: 0.00955.
Next, C82A A120G A145C C169A U176G: 0.00327; C82A A120G A145G C169U U176G: 0.0046.
Next, C82A A120G A145G C169U U176A: 0.022.
For the variant C82A A120G A145G C169U U176C, the reverse-splicing fitness turned out to be 0.0195.
Next, C82A A120G A145G C169A U176A: 0.0208.
Next, C82A A120G A145G C169A U176G: 0.00382.
Next, C82A A120G A145G C169A U176C: 0.0273.
With C82A A120G A145U C169U U176G, the reverse-splicing fitness was found to be 0.00329.
For C82A A120G A145U C169U U176C, the reverse-splicing fitness came to 0.0169.
Next, C82A A120G A145U C169U U176A: 0.02; C82A A120G A145U C150G C169G: 0.00902.
For the variant C82A A120G A145U C150G C169U, the reverse-splicing fitness stood at 0.00862.
Next, C82A A120G A145U C150G C169A: 0.00891; C82A A120G A145G C150U U176C: 0.0178; C82A A120G A145G C150U U176A: 0.0104.
Next, C82A A120G A145G C150U U176G: 0.00667.
Regarding C82A A120G A145C C150U C169G U176C, the reverse-splicing fitness came to 0.0116.
Next, C82A A120G A145C C150U C169G U176A: 0.0208; C82A A120G A145C C150U C169G U176G: 0.00468.
For the variant C82A A120G A145U C150U C169U U176G, the reverse-splicing fitness was 0.00449.
Next, C82A A120G A145U C150U C169U U176A: 0.0201.
Next, C82A A120G A145U C150U C169U U176C: 0.0174; C82A A120G A145U C150U: 0.0167; C82A A120G A145U C150G: 0.00781.
Next, C82A A120G A145U C150A: 0.00826.
As to C82A A120G A145G C169G U176G, the reverse-splicing fitness was found to be 0.00359.
Next, C82A A120G A145G C169G U176C: 0.032; C82A A120G A145G C169G U176A: 0.0223.
For the variant C82A A120G A145U C169A U176A, the reverse-splicing fitness turned out to be 0.0104.
Next, C82A A120G A145U C169A U176C: 0.00947.
Take C82A A120G A145U C169A U176G: the reverse-splicing fitness was determined as 0.00321.
Next, C82A A120G A145U: 0.0219.
Next, C82A A120G A145G: 0.0225.
Next, C82A A120G A145C C150U U176C: 0.0102; C82A A120G A145C C150U U176G: 0.0042.
In the case of C82A A120G A145C C150U U176A, the reverse-splicing fitness came to 0.0106.
Next, C82A A120G A145U C169G U176G: 0.00322; C82A A120G A145U C169G U176A: 0.0118.
Regarding C82A A120G A145U C169G U176C, the reverse-splicing fitness is 0.0144.
Next, C82A A120G C150A: 0.0107; C82A A120G A145U C150U U176C: 0.0158.
Next, C82A A120G A145U C150U U176A: 0.0108; C82A A120G A145U C150U U176G: 0.00531; C82A A120G A145U C169G: 0.0204.
Next, C82A A120G A145U C169U: 0.0145; C82A A120G A145U C169A: 0.0137; C82A A120G C150A C169U U176C: 0.0215.
In the case of C82A A120G C150A C169U U176A, the reverse-splicing fitness was 0.0218.
Next, C82A A120G C150A C169U U176G: 0.00815; C82A A120G A145U C150U C169G: 0.0173; C82A A120G A145U C150U C169U: 0.0133.
Take C82A A120G A145U C150U C169A: the reverse-splicing fitness came out at 0.013.
Next, C82A A120G A145C C169U U176G: 0.00381; C82A A120G A145C C169U U176C: 0.0129.
Next, C82A A120G A145C C169U U176A: 0.0217; C82A A120G A145U C150G C169A U176A: 0.0097; C82A A120G A145U C150G C169A U176G: 0.00378.
Next, C82A A120G A145U C150G C169A U176C: 0.01.
